Assay results published in the nanobody polyreactivity screen of Harvey et al. (2022).

Assay: yeast display, Sf9 membrane polyspecificity reagent, FACS + sequencing; frameworks hold sequencing errors
How it was run: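 Synthetic nanobody libraries on Saccharomyces cerevisiae BJ5465 were galactose-induced for 36–48 hours, stained 1 hour at 4 °C with 10% biotinylated, detergent-solubilized Sf9 membrane reagent and enriched on streptavidin microbeads. FACS then separated cells into low and high (top ~1%) gates by anti-HA (expression) and streptavidin (reagent binding) fluorescence. Genes were colony-PCR amplified, MiSeq 2 × 250 sequenced and CDR-length filtered. A clone's polyreactivity label is that of its gate of origin.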

| Sequence | polyreactivity (PSR sort gate) |
| --- | --- |
| QVQLVESGGGLVQAGGSLRLSCAASGSIFSYYSMGWYRQAPGKERELVAAITSGDGTNYADSVKGRFTISRDYAKNTVYLQMNSLKPEDTAVYYCAADAVDSYWREDYWGQGTQVTVSS | low polyreactivity |
| QVQLVESGGGLGQAGGSLRLSCAASGSTFGRYVMGWYRQAPGKERELVAAISKNSGSTYYAYSVKGRFTISRDNAKNTVYLQMNSLKPEDTAVYYCAADWRSKGYDSLGQGTQVTVSS | high polyreactivity |
| QVQLVESGVGLVQAGGSVRLSCAASGRTFTRYAMGWYRQAPGKEREWVAAITWSGGSTYYADSVKGRFTISRDNAKNTVYLQMNSLKPEDTAVYYCNAQRYGLFGSEHGYWGQGTQVTVSS | high polyreactivity |
| QVQLVESGGGLVQAGGSLRLSCAASGFTFYYYAMGWYRQAPGKERELVAAISYSGGSTYYADSVKGRFTISRDNAKNTVYLQMNSLKPEDTAVYYCAALYTGESGYWGQGTQVTVSS | high polyreactivity |
| QVQLEESGGGLVQAGGSLRLSCAASGFTIRLYARGWYRQAPGKVRELVAAITSGGSTYADSVKGRFTISRDNAKNTVYLQMNSLKPEDTAVNYCAAVSRYWAKYEYWGQGTQVTVSS | high polyreactivity |
| QVQLVESGGGLVQAGGSLRLSCAASGSIFRKYAMGWYRQAPGKERELVAVITTDGSTNYADSVKGRFTISRDNAKNTVYLQMNSLKPEDTAVYYCNAVRSSIGTDNDYWGQGTQVTVSS | low polyreactivity |
| QVQLVESGGGLVQAGGSLRLSCAASGGIFAWYAMGWYRQAPGKERELVAAIDHSGGSTYYADSVKGRFTISRDNAKNTVYLQMNSLKPEDTAVYYCNAGYYGYWEKYDYWGQGTQVTVSS | low polyreactivity |
| QVQLVESGGGLVQAGGSLRLSCAASGLIFDYYAMGWYRQAPGKERELVAAISSGGDTTYADSVKGRFTISRDNAKNTVYLQMNSLKPEDTAVYYCAADRWIPVYILGADGYDYWGQGTQVTVSS | low polyreactivity |
| QVQLVESGGGLVQAGGSLRLSCAASGITFTGNSMGWYRQAPGKERELVAAISNRGGSTYYADSVKGRFTISRDNAKNTVYLQMNSLKREDTAVYYCRTSTPRRVSGNYWGQGTQVTVSS | high polyreactivity |
| QVQLVESGGGLVQAGGSLRLSCAASGRTFRYNVMGWYRQAPGKERELVAAIRKRSGSTYYADSVKGRFTISRDNAKNTVYLQMISLKPEDTAVYYCNTEYHYGTASASDYWGQGTQVTVSS | high polyreactivity |
| QVQLVESGGGLVQAGGSLSLSCAASGSIFRYYAMGWYRQAPGKERELVAAITSGGRTNYADSVKGRFTISRDNAKNTVYLQMNSLKREDTAVYYCNKCYNAVWRYRGDYWGQGTQVTVSS | high polyreactivity |
| QVQLEESGGGLVQAGGSLRLSCAASGFTFNKYAMGWYRQAPGKERELVDAISSSGGSTRYADSVKGRFKISRDNAKNTVYLQMNSLKPEDSAVYYCAVYVTRDSGWWLYDYWGQGTQVTVAS | high polyreactivity |
| QVQLVESGGGLVQAGGSLRLSCAASGFIFKVNAMGCYRQAPGKERELVAAISRRGGTTYYADSVKGRFTISRDNAKNTVYFQLNSLKPEDTAVYYCYRARSYGVTDKVAILADDYWGQGTQVTVSS | high polyreactivity |
| QVQLVESGAGLVQAGGSLRLSCAASGFTFQNYAMGWYRQAPGKERELVAAIDSRGGRTYYADSVKGRFTISRDNAKNSVYLQMNSLKPEDTAVYYCAVAENKRFGSVGYYYWGQGTQVTVSS | low polyreactivity |
| QVQLVESGGGLVQAGGSLRLSCAASGSTFGYYTMGWYRQEPVKETELVAAISYSGGRTFYADSVKGRFTISRDNAKNSVYLQMKSLKTEDTEVYYCNKRYIPSYLSHLDYWGQGTQVTVSS | high polyreactivity |
| QVQLVESGGGLVQAGGSLRLSCASSGSIFYPYAMGWYRPAPGKERELVAAISSGGTTYYADSVKGRFTISRDNAKNTVYLQMNSLKPEDTAVYYCAAGFYLRAVWMDYWGQGTQVTVSS | high polyreactivity |
| QVQLVESGGGLVQAGGSLRLSCAASGRIFRDNAMGWYRQAPGKEREFVARITISTGTTYYADSVKGRFTISRDNAKNTVYLQMNSLKPEDTAVYYCAALYTVSYLTSPVSYRYDYWGQGTQVTVSS | low polyreactivity |
| QVQLVESGGGLVQAGGSLRLSCAASGYIFGQNARGLYRQAPGKERELGASMSDGGSTYYADSVKGRFTISRDNAKNTVYLQLNSLKPEDTAVYYCAAYYSYGSTSHTYTCFDYWGQGTQVTVSS | low polyreactivity |
| QVQLVQSGGGLVHAGGSLRLSCAASGRISFYYAMGWYRQAPGKERELVAAISRGGSTYYPDSVKGRFTISRDNAKNTVFLQMNSLKPEDTAVYYCAATYSGVDTPSGYDYWGQGTQVTVSS | low polyreactivity |
| QVQLVESGGGLVQAGGSLRLSCAASGNAMGWYRQAPGKERELVASINRSGGSTYYADSVKGRFTISRDNAKNTVYLQMNSLIPEDTAVYSCNTDVGATVEDDYWGQGTQVTVSS | low polyreactivity |
| QVQLVESGGGLVQAGGSLRLSCAASGGTIAPYAMGWSRQAPGKERELVATISYSGTSTNYADSVKGRFTISRDNAKNTVYLQMNSLKPEDTAVYDCAKRYHQYRWRGWLWGFDYWGQGNQVTVSS | high polyreactivity |
| PVQLVESGGVLVQAGGILRLSCAASGFTFYLYGMGWYRRAPGKERELVAAISRSGGSTYYADSVKGRFTISRDNAKNTVYLQMNSLKPEDPAVYACAVDKQGSRRRIISDEMYYWGQGTQVTVSS | high polyreactivity |

| Sequence | polyreactivity (PSR sort gate) |
| --- | --- |
| QVQLVESGGGLVQAGGSLRLSCAASGIIFSFNAMGWYRQAPGKERELVAAITWRDGSTYYADSVKGRFTISRDNAKNTVYLQMNSLKPEDTAVYYCNADLLDISSYDGMDYWGQGTQVTVSS | low polyreactivity |
| QVQLVESGGGLVQAGGSLRLSCASSGLIFYKNAMGWYRQAPGKVRELVAAISWRDGRTYYADSVKGRFTISRDNAKNTVYLQMNSLKPEDTAVYYCNAVRGITYYDYFYWGQGTQVTVSS | high polyreactivity |
| QVQLVESGGGLVQAGGSLRLSCAASGFTIYNYAMGWYRQAPGKERELVAAISWSGGSTHYADSVKGRFTISRDNAKNTVYLQMNSLKPEDTAVYYCAKVGVLVYYTYYYWGQGTQVTVSS | low polyreactivity |
| QVQLVESGGGLVQAGGSLRLSCAASGSTFSANAMGWYRQAPGKERELVAAISRRGGSTNYADSVKGRFTISRDNAKNTVYLQMNSLKPEDTAVYYCAALYVPRSPFSYDYWGQGTQVTVSS | high polyreactivity |
| QVQLVESGGGLVQAGGSLRLSCAASGFTIRYYAMGWYRQAPGKERELVAAIDWSGGSTYYADSVKGRFTISRDNAKNTVYLQINSLKPEDTAVYYCNVDFYDLYVYLWYVDYDYWGQGTQVTVSS | high polyreactivity |
| QVQLVESRGGLVQAGGSLRLSCAASGRTFWYYAMGWYRQAPGKELELVATITGSGGTTYYADSVKGRFTISRDNAKNTVYLQMNSLKPEDTAVYYCAKEQHWYIYGPAEVDYWGQGTQVTVSS | high polyreactivity |
| QVQLVESGGGLVQAGGSLRLSCAASGRIFRLYAMGWYRQAPGKERELVATITDVGSTYYADSVKGRFTISRDNAKNTVYLQMNSLKPEDTAVYYCAAESYYTSYWKYYYWGQGTQVTVSS | high polyreactivity |
| QVQLVESGGGLVQAGGSLRLSSAASGIIFITYAMGWYRQAPGKDRELVAVISFSGGGTYADSVKGRFTISRDNAKNTVYLQMNSLKPEDTAVYYCAARRHSVGDYWLIYDYWGQGTQVTVSS | low polyreactivity |
| QVQLVESGGGLVQAGGSLRLSSAASGSIFGSNAMGWSRQAPGKERELVATITTSGGITYYADSVKGRFTISRDNAKNTVYLQMTSLKPEDTAVYYCAAAEGGGLVTYDYWGQGTQVTVSS | low polyreactivity |
| QVQLVESGGGLVQAGGSLRLSCAASGGTPQNAMGWYRQAPGKDRELVAAISKRGGSTYYADSVKGRFTISRDNAKNTGYLQMNSLKPEDTAVYDCAAVSQRAQHTSEYDYWGQGTQVTVSS | high polyreactivity |
| QVQLVESGGGLVQAGGSLRLSCAASGSTISINALGWSRQAPGKERELVAAITGGDTNTYYADSVKGRFTISRDTAKNTVYLLMNSLKPEDTAVYYCNARIYDYAGAGTWSYDSWGQGTQVTVSS | low polyreactivity |
| QVQLVESGGGLVQAGGSLRLSCAASGSTFGVYTMGWYIQAPGKERELVAAITKSGGSTYYADSVKGRFTISRDNAKNTVYLQMNSLKPEDTAVYYCNTDYGRYLYYRYGYWGQGTQVTVSS | low polyreactivity |
| QVQLVESGGGLVQAGGSLRLSFAASGSTFHYYAMGWYRQAPGKERELVAAINSGARTYYADSVKGRFTISRDNAKNTVYLQMNSLKPEDTAVYYCAADDSYRSIGGDYWGQGTQVTVSS | low polyreactivity |
| QVQLVESGGGLVQSGGSLRLSCAASGSTIPPNAMGWYRQAPGKERELVAGISYGGSTTYADSVKGRFTISRDNAKNTVYLQMNSLKPEDTAVYYCAADQPYWRDYDYWGQGTQVTVSS | low polyreactivity |
| QDQLVESGGGLDQAGGSLRLSCAASGRIFDVYAMGWYRQAPGKERELVAAISWSGSSTYYADSVKGRFTISRDNAKNTVYLQMNSLKPEDTAVYSCATVLRVTRVDYWGQGTQVTVSS | high polyreactivity |
| QVQLVESGGGLVQAGGSLRLSCAASGFIFTVNAMGWYRQAPGKERELVAAITQSGGNTSYADSVKGRFTISRDNAKNTVYLQMNSLKPEDTAVYYCNASSDTSRYGVSTYYYWGQGTQVTVSS | low polyreactivity |
| QVQLVESGGGLVQAGGSLRLSCPASGLIFVDNAMGWYRQAPGKERELVAAIDSGGSTNYADSVKGRFTISRDNAKNTVYLQMNRLQPEDTAVYYCAADGIYAPWYYQESVEYYFWGQGTQVTVSS | low polyreactivity |
| QVQLVESGGGLVQAGGSLRLSSAASGRTFKYYGLGWYRQPPGKESQLVATISRSSSRTYYADSVKGRFTISRDNAKNTVYFKMNSLKPEDSAVYYCASLAPRSYDYDYWGKGTQVTVSS | high polyreactivity |
| QVQLVESGGGLVQAGGSLRLSCAASGSTFAKNAMGWYRQAPGKERQLVAAITYSGGSTYYADSVKGRFTISRDNAKNTVYLQMNSLKPEDTAVYYCAADVWWSYYRYDYWGQGTQVTVSS | low polyreactivity |
| QVQLVESGGGLVQAGGSLRLSCAASGFTFYVYTMGWYRQAPGKERELVAAITWSGGSTYYADSVKGRFTISRDNAKNNVYLQMNSLKPEDTAVYYCNRVGYWVGHDSWGQGTQVTVSS | high polyreactivity |
| QVQLEESGGGLVQAGGSLRLTCAASGFIFDDNAMGWYRQAPGKERELVAAISQGAGRTYYADSVKGRFTISRDNAKNTVYLQMNSLKPEDTAVYYCNSGRPKYWYGSKYDYWGQGTQVTVSS | low polyreactivity |
